Laboratory results: US20020058637

How the values were obtained:
[1] = tested on: Peptide K2
[2] = target: tau-protein extracted from bovine brain followed by purification (not phosphorylated by TPK-I) (UniProt P29172)
[3] = tested on: phosphorylated peptide p-K2

tau-protein extracted from bovine brain followed by purification (not phosphorylated by TPK-I), sequence (P29172 2-448): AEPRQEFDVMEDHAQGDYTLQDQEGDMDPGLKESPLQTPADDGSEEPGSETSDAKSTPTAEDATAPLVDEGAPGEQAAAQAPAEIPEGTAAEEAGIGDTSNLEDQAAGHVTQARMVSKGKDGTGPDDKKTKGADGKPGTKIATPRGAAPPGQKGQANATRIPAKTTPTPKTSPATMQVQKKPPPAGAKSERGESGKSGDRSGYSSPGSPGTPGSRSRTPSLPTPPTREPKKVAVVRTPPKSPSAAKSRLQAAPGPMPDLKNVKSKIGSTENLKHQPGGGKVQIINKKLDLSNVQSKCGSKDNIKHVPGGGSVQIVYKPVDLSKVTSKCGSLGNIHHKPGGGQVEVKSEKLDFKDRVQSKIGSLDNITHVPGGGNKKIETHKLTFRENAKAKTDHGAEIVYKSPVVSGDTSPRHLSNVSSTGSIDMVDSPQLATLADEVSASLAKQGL

recombinant human TPK-I expressed in Escherichia coli BL21(DE3) from pET3C/TPKI (partially purified)
phosphorylation of peptide [1]: that of K2 hardly proceeded
phosphoric acid incorporated into tau-protein (phosphorylating method I) [2]: 1.2 moles of phosphoric acid was incorporated into one molecule of tau-protein
phosphorylation of peptide [3]: the phosphorylation of p-Ka proceeded

recombinant human-originated tau-protein kinase I expressed in Sf9 insect cells (partially purified)
initial speed of phosphorylation of peptide (phosphorylating method I) [1]: phosphorylation of K2 was slow and its initial speed was about one-tenth of that of p-K2
amount of phosphoric acid incorporated in tau-protein (phosphorylating method I, 32P) [2]: incorporation of tau-protein into phosphoric acid was confirmed
phosphorylation of peptide (phosphorylating method I) [3]: the progress of phosphorylation of p-K2 was clearly noted

tau-protein kinase II (TPK-II) purified from bovine brain microtubule
phosphorylation of peptide (phosphorylating method II) [1]: phosphorylated peptide (hereinafter, abbreviated as "p-K2") was obtained
